# Read-outs that look alike come from different tables or passages of the source. Positions of bridges follow the written chain, without caps; N, C: chain ends. Non-standard residues stand in square brackets, D forms with d. 2Nal = N[C@@H](Cc1ccc2ccccc2c1)C(=O)O; Pen = CC(C)(S)[C@H](N)C(=O)O; Phg = N[C@H](C(=O)O)c1ccccc1; Nle = CCCC[C@H](N)C(=O)O; HCt = not defined here
# B1: Compound 100 (peptide)
# peptide: {CH2CO}-[2Nal]RSGHNW[Nle]VWVC-NH2
# modifications: thioether N-12
# SMILES: CCCC[C@@H]1NC(=O)[C@H](Cc2c[nH]c3ccccc23)NC(=O)[C@H](CC(N)=O)NC(=O)[C@H](Cc2c[nH]cn2)NC(=O)CNC(=O)[C@H](CO)NC(=O)[C@H](CCCNC(=N)N)NC(=O)[C@H](Cc2ccc3ccccc3c2)NC(=O)CSC[C@@H](C(N)=O)NC(=O)[C@H](C(C)C)NC(=O)[C@H](Cc2c[nH]c3ccccc23)NC(=O)[C@H](C(C)C)NC1=O
# B2: Compound 103 (peptide)
# peptide: {CH2CO}-[2Nal]RSGKNW[Nle][Phg]WVC-NH2
# modifications: thioether N-12
# SMILES: CCCC[C@@H]1NC(=O)[C@H](Cc2c[nH]c3ccccc23)NC(=O)[C@H](CC(N)=O)NC(=O)[C@H](CCCCN)NC(=O)CNC(=O)[C@H](CO)NC(=O)[C@H](CCCNC(=N)N)NC(=O)[C@H](Cc2ccc3ccccc3c2)NC(=O)CSC[C@@H](C(N)=O)NC(=O)[C@H](C(C)C)NC(=O)[C@H](Cc2c[nH]c3ccccc23)NC(=O)[C@H](c2ccccc2)NC1=O
# B3: Compound 79 (peptide)
# peptide: {CH2CO}-[2Nal]ISGRDW[Nle]KWV[Pen]-NH2
# modifications: thioether N-12
# SMILES: CCCC[C@@H]1NC(=O)[C@H](Cc2c[nH]c3ccccc23)NC(=O)[C@H](CC(=O)O)NC(=O)[C@H](CCCNC(=N)N)NC(=O)CNC(=O)[C@H](CO)NC(=O)[C@H]([C@@H](C)CC)NC(=O)[C@H](Cc2ccc3ccccc3c2)NC(=O)CSC(C)(C)[C@@H](C(N)=O)NC(=O)[C@H](C(C)C)NC(=O)[C@H](Cc2c[nH]c3ccccc23)NC(=O)[C@H](CCCCN)NC1=O
# B4: Compound 98 (peptide)
# peptide: {CH2CO}-[2Nal]RSGKNWVVWVC-NH2
# modifications: thioether N-12
# SMILES: CC(C)[C@@H]1NC(=O)[C@H](Cc2c[nH]c3ccccc23)NC(=O)[C@H](C(C)C)NC(=O)[C@H](C(C)C)NC(=O)[C@H](Cc2c[nH]c3ccccc23)NC(=O)[C@H](CC(N)=O)NC(=O)[C@H](CCCCN)NC(=O)CNC(=O)[C@H](CO)NC(=O)[C@H](CCCNC(=N)N)NC(=O)[C@H](Cc2ccc3ccccc3c2)NC(=O)CSC[C@@H](C(N)=O)NC1=O
# B5: Compound 82 (peptide)
# peptide: {CH2CO}-L[2Nal]ISGRDW[Nle]KWVC-NH2
# modifications: thioether N-13
# SMILES: CCCC[C@@H]1NC(=O)[C@H](Cc2c[nH]c3ccccc23)NC(=O)[C@H](CC(=O)O)NC(=O)[C@H](CCCNC(=N)N)NC(=O)CNC(=O)[C@H](CO)NC(=O)[C@H]([C@@H](C)CC)NC(=O)[C@H](Cc2ccc3ccccc3c2)NC(=O)[C@H](CC(C)C)NC(=O)CSC[C@@H](C(N)=O)NC(=O)[C@H](C(C)C)NC(=O)[C@H](Cc2c[nH]c3ccccc23)NC(=O)[C@H](CCCCN)NC1=O
# B6: Compound 94 (peptide)
# peptide: {CH2CO}-F[2Nal]ISGKDW[Nle]RWVC-NH2
# modifications: thioether N-13
# SMILES: CCCC[C@@H]1NC(=O)[C@H](Cc2c[nH]c3ccccc23)NC(=O)[C@H](CC(=O)O)NC(=O)[C@H](CCCCN)NC(=O)CNC(=O)[C@H](CO)NC(=O)[C@H]([C@@H](C)CC)NC(=O)[C@H](Cc2ccc3ccccc3c2)NC(=O)[C@H](Cc2ccccc2)NC(=O)CSC[C@@H](C(N)=O)NC(=O)[C@H](C(C)C)NC(=O)[C@H](Cc2c[nH]c3ccccc23)NC(=O)[C@H](CCCNC(=N)N)NC1=O
# B7: Compound 85 (peptide)
# peptide: {CH2CO}-T[2Nal]ISGRDW[Nle]KWVC-NH2
# modifications: thioether N-13
# SMILES: CCCC[C@@H]1NC(=O)[C@H](Cc2c[nH]c3ccccc23)NC(=O)[C@H](CC(=O)O)NC(=O)[C@H](CCCNC(=N)N)NC(=O)CNC(=O)[C@H](CO)NC(=O)[C@H]([C@@H](C)CC)NC(=O)[C@H](Cc2ccc3ccccc3c2)NC(=O)[C@H]([C@@H](C)O)NC(=O)CSC[C@@H](C(N)=O)NC(=O)[C@H](C(C)C)NC(=O)[C@H](Cc2c[nH]c3ccccc23)NC(=O)[C@H](CCCCN)NC1=O
# B8: Compound 87 (peptide)
# peptide: {CH2CO}-F[2Nal]ISGRDW[Nle]KWVC-NH2
# modifications: thioether N-13
# SMILES: CCCC[C@@H]1NC(=O)[C@H](Cc2c[nH]c3ccccc23)NC(=O)[C@H](CC(=O)O)NC(=O)[C@H](CCCNC(=N)N)NC(=O)CNC(=O)[C@H](CO)NC(=O)[C@H]([C@@H](C)CC)NC(=O)[C@H](Cc2ccc3ccccc3c2)NC(=O)[C@H](Cc2ccccc2)NC(=O)CSC[C@@H](C(N)=O)NC(=O)[C@H](C(C)C)NC(=O)[C@H](Cc2c[nH]c3ccccc23)NC(=O)[C@H](CCCCN)NC1=O
# B9: Compound 89 (peptide)
# peptide: {CH2CO}-W[2Nal]ISGRDW[Nle]KWVC-NH2
# modifications: thioether N-13
# SMILES: CCCC[C@@H]1NC(=O)[C@H](Cc2c[nH]c3ccccc23)NC(=O)[C@H](CC(=O)O)NC(=O)[C@H](CCCNC(=N)N)NC(=O)CNC(=O)[C@H](CO)NC(=O)[C@H]([C@@H](C)CC)NC(=O)[C@H](Cc2ccc3ccccc3c2)NC(=O)[C@H](Cc2c[nH]c3ccccc23)NC(=O)CSC[C@@H](C(N)=O)NC(=O)[C@H](C(C)C)NC(=O)[C@H](Cc2c[nH]c3ccccc23)NC(=O)[C@H](CCCCN)NC1=O
# Experiments:
# [1] = biological target: T1, Thrombospondin human platelet (Calbiochem, 605225) (human, UniProt P07996 19-1170); test: cell-based or functional assay
# [2] = biological target: T1, Thrombospondin human platelet …; test: cell-based or functional assay; remark: listed apart in the source
# T1 sequence (P07996 19-1170 limits assumed): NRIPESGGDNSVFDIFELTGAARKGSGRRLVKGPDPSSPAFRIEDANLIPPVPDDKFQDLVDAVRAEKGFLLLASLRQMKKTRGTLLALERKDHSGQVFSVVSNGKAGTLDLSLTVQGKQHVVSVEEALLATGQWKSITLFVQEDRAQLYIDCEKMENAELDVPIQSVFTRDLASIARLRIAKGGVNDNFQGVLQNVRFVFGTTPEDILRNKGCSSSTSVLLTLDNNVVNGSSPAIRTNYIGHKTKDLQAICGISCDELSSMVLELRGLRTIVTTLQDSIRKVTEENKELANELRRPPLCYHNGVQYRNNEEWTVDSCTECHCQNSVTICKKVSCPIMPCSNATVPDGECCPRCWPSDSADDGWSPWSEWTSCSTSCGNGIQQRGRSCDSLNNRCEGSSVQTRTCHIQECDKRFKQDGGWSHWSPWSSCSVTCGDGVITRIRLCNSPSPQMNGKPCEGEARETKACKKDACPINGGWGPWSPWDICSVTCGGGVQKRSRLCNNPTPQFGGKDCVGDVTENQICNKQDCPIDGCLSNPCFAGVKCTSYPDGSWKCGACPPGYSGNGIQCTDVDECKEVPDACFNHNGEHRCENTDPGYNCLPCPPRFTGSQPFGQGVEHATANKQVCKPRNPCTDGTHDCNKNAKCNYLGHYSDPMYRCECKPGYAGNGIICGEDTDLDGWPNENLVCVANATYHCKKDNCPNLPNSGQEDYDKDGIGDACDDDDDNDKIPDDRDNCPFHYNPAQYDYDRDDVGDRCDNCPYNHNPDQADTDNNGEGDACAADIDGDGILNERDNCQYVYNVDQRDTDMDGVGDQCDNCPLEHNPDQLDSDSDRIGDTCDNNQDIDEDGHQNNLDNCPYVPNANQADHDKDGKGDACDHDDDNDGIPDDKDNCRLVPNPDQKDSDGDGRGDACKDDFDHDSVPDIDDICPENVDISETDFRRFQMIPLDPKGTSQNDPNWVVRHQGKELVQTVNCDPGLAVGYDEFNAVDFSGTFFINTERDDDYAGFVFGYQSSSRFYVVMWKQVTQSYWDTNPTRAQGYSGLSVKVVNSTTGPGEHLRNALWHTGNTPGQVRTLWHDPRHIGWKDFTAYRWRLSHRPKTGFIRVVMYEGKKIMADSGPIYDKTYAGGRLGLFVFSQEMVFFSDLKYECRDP
Binder,Cell adhesion IC50 [1],Cell adhesion IC50 [2]
B1,19.5 nM,
B2,12.4 nM,
B3,15 nM,
B4,3.9 nM,
{CH2CO}-[2Nal]ISG[HCt]DW[Nle]KWVC-NH2 (thioether N-12; reading uncertain) [Compound 74],,20.7 nM
B5,29.9 nM,
{CH2CO}-[2Nal]ISG[3Hyp]NW[Nle]HWVC-NH2 (thioether N-12) [Compound 69],,27.9 nM
B6,25.1 nM,
B7,15.5 nM,
B8,15.8 nM,
B9,23.8 nM,

# Reference: patent publication US20200131230A1 (published 2020)
